Reference: US20190241648A1 (STATEN BIOTECHNOLOGY B V, published 2019)
Ends that are not written are not given here.

Experiments:
Experiment in all cases: cyclic peptide substitution array
ApoC3 peptide S62N = target: T1, ApoC3 peptide S62N (human, thioether (positions not given here); also: cyclic (thioether), ring places not given here)
T1 peptide: DKFNEFWDLDPEV
Procedure, shortened: (§1)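 Peptide microarrays incubated with antibody samples, then stained with goat anti-human IgG (Fc) DyLight680 and anti-HA DyLight800 control antibodies, scanned at intensity 7/7 (red/green). Secondary-only pre-stain checked background binding; framing HA peptides served as quality control; substitution effects read as changes in spot intensity.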

ApoC3 peptide D66V = target: T2, ApoC3 peptide D66V (human, not fully specified; cyclic (thioether))
T2 peptide: DKFSEFWVLDPEV
Procedure, shortened: as §1

ApoC3 peptide E70T = target: T3, ApoC3 peptide E70T (human, cyclic (thioether))
T3 peptide: DKFSEFWDLDPTV
Procedure, shortened: as §1

ApoC3 peptide E63M = target: T4, ApoC3 peptide E63M (human, cyclic (thioether))
T4 peptide: DKFSMFWDLDPEV
Procedure, shortened: as §1

ApoC3 peptide D66P = target: T5, ApoC3 peptide D66P (human, not fully specified; cyclic (thioether))
T5 peptide: DKFSEFWPLDPEV
Procedure, shortened: as §1

ApoC3 peptide L67Y = target: T6, ApoC3 peptide L67Y (human, thioether (positions not given here); not fully specified (bridges); also: thioether between a C-terminal Cys side chain and a modified N-terminus, the Cys is not in the chain)
T6 peptide: DKFSEFWDYDPEV
Procedure, shortened: as §1

ApoC3 peptide E70I = target: T7, ApoC3 peptide E70I (human, cyclic (thioether))
T7 peptide: DKFSEFWDLDPIV
Procedure, shortened: as §1

ApoC3 peptide D66R = target: T8, ApoC3 peptide D66R (human, not fully specified; cyclic (thioether))
T8 peptide: DKFSEFWRLDPEV
Procedure, shortened: as §1

ApoC3 peptide F64K = target: T9, ApoC3 peptide F64K (human, thioether (positions not given here); not fully specified (bridges); also: cyclic (thioether), positions not given here)
T9 peptide: DKFSEKWDLDPEV
Procedure, shortened: as §1

ApoC3 peptide K60S = target: T10, ApoC3 peptide K60S (human, cyclic (thioether))
T10 peptide: DSFSEFWDLDPEV
Procedure, shortened: as §1

ApoC3 peptide D59G = target: T11, ApoC3 peptide D59G (human, thioether (positions not given here); not fully specified (C-terminus, bridges))
T11 peptide: GKFSEFWDLDPEV
Procedure, shortened: as §1

ApoC3 peptide P69N = target: T12, ApoC3 peptide P69N (human, not fully specified; cyclic (thioether))
T12 peptide: DKFSEFWDLDNEV
Procedure, shortened: as §1

ApoC3 peptide W65E = target: T13, ApoC3 peptide W65E (human, not fully specified; cyclic (thioether))
T13 peptide: DKFSEFEDLDPEV
Procedure, shortened: as §1

ApoC3 peptide W65A = target: T14, ApoC3 peptide W65A (human, not fully specified; cyclic (thioether))
T14 peptide: DKFSEFADLDPEV
Procedure, shortened: as §1

ApoC3 peptide K60A = target: T15, ApoC3 peptide K60A (human, thioether (positions not given here); not fully specified (bridges); also: cyclic (thioether), positions not given here)
T15 peptide: DAFSEFWDLDPEV
Procedure, shortened: as §1

ApoC3 peptide D68A = target: T16, ApoC3 peptide D68A (human, cyclic (thioether))
T16 peptide: DKFSEFWDLAPEV
Procedure, shortened: as §1

ApoC3 peptide E70H = target: T17, ApoC3 peptide E70H (human, cyclic (thioether))
T17 peptide: DKFSEFWDLDPHV
Procedure, shortened: as §1

ApoC3 peptide S62M = target: T18, ApoC3 peptide S62M (human, thioether (positions not given here); also: cyclic (thioether), ring places not given here)
T18 peptide: DKFMEFWDLDPEV
Procedure, shortened: as §1

ApoC3 peptide V71C = target: T19, ApoC3 peptide V71C (human, thioether (positions not given here); also: cyclic (thioether), ring places not given here)
T19 peptide: DKFSEFWDLDPEC
Procedure, shortened: as §1

ApoC3 peptide P69T = target: T20, ApoC3 peptide P69T (human, not fully specified; cyclic (thioether))
T20 peptide: DKFSEFWDLDTEV
Procedure, shortened: as §1

ApoC3 peptide E63K = target: T21, ApoC3 peptide E63K (human, cyclic (thioether))
T21 peptide: DKFSKFWDLDPEV
Procedure, shortened: as §1

ApoC3 peptide E70W = target: T22, ApoC3 peptide E70W (human, cyclic (thioether))
T22 peptide: DKFSEFWDLDPWV
Procedure, shortened: as §1

ApoC3 peptide D59V = target: T23, ApoC3 peptide D59V (human, thioether (positions not given here); not fully specified (C-terminus, bridges); also: cyclised via thioether between a C-terminal Cys and a modified N-terminus, the Cys and the N-terminal …)
T23 peptide: VKFSEFWDLDPEV
Procedure, shortened: as §1

ApoC3 peptide V71T = target: T24, ApoC3 peptide V71T (human, not fully specified; cyclic (thioether))
T24 peptide: DKFSEFWDLDPET
Procedure, shortened: as §1

ApoC3 peptide S62L = target: T25, ApoC3 peptide S62L (human, thioether (positions not given here); also: cyclic (thioether), ring places not given here)
T25 peptide: DKFLEFWDLDPEV
Procedure, shortened: as §1

ApoC3 peptide D68W = target: T26, ApoC3 peptide D68W (human, cyclic (thioether))
T26 peptide: DKFSEFWDLWPEV
Procedure, shortened: as §1

ApoC3 peptide D68C = target: T27, ApoC3 peptide D68C (human, cyclic (thioether))
T27 peptide: DKFSEFWDLCPEV
Procedure, shortened: as §1

ApoC3 peptide F61Y = target: T28, ApoC3 peptide F61Y (human, cyclic (thioether))
T28 peptide: DKYSEFWDLDPEV
Procedure, shortened: as §1

ApoC3 peptide D66Y = target: T29, ApoC3 peptide D66Y (human, cyclic (thioether))
T29 peptide: DKFSEFWYLDPEV
Procedure, shortened: as §1

ApoC3 peptide L67F = target: T30, ApoC3 peptide L67F (human, thioether (positions not given here); not fully specified (bridges); also: thioether between a C-terminal Cys side chain and a modified N-terminus, the Cys is not in the chain)
T30 peptide: DKFSEFWDFDPEV
Procedure, shortened: as §1

ApoC3 peptide E70L = target: T31, ApoC3 peptide E70L (human, cyclic (thioether))
T31 peptide: DKFSEFWDLDPLV
Procedure, shortened: as §1

- % of binding to wild-type peptide (ApoC3 peptide S62N): 0%
- % of binding to wild-type peptide (ApoC3 peptide D66V): 0%
- % of binding to wild-type peptide (ApoC3 peptide E70T): 83%
- % of binding to wild-type peptide (ApoC3 peptide E63M): 13.1%
- % of binding to wild-type peptide (ApoC3 peptide D66P): 0%
- % of binding to wild-type peptide (ApoC3 peptide L67Y): 0.02%
- % of binding to wild-type peptide (ApoC3 peptide E70I): 65.6%
- % of binding to wild-type peptide (ApoC3 peptide D66R): 0.17%
- % of binding to wild-type peptide (ApoC3 peptide F64K): 114%
- % of binding to wild-type peptide (ApoC3 peptide K60S): 174%
- % of binding to wild-type peptide (ApoC3 peptide D59G): 60.3%
- % of binding to wild-type peptide (ApoC3 peptide P69N): 19.4%
- % of binding to wild-type peptide (ApoC3 peptide W65E): 0%
- % of binding to wild-type peptide (ApoC3 peptide W65A): 0%
- % of binding to wild-type peptide (ApoC3 peptide K60A): 143%
- % of binding to wild-type peptide (ApoC3 peptide D68A): 1.75%
- % of binding to wild-type peptide (ApoC3 peptide E70H): 50.5%
- % of binding to wild-type peptide (ApoC3 peptide S62M): 0%
- % of binding to wild-type peptide (ApoC3 peptide V71C): 56.9%
- % of binding to wild-type peptide (ApoC3 peptide P69T): 113%
- % of binding to wild-type peptide (ApoC3 peptide E63K): 19.1%
- % of binding to wild-type peptide (ApoC3 peptide E70W): 35.4%
- % of binding to wild-type peptide (ApoC3 peptide D59V): 43.3%
- % of binding to wild-type peptide (ApoC3 peptide V71T): 96.7%
- % of binding to wild-type peptide (ApoC3 peptide S62L): 3.83%
- % of binding to wild-type peptide (ApoC3 peptide D68W): 0%
- % of binding to wild-type peptide (ApoC3 peptide D68C): 5.46%
- % of binding to wild-type peptide (ApoC3 peptide F61Y): 126%
- % of binding to wild-type peptide (ApoC3 peptide D66Y): 0%
- % of binding to wild-type peptide (ApoC3 peptide L67F): 0.37%
- % of binding to wild-type peptide (ApoC3 peptide E70L): 59.1%
B1: Llama antibody 5E5 (antibody, V domains shown)
VH: QLQLVESGGGLVQPGGSLRLSCAASGFTFGTYSMRWVRQVPRKALEWVSSISTDGGGTAYRDSVKGRFTISRDNAKNTLYLQMNNLKPEDTAIYYCVIAGYSDWGQGTQVTVSS
VL: ATMLTQSPGSLSVVPGESASISCKTSQGLVHSDGKTYFYWFLQKPGQSPQQLIYQVSNRASGVPDRFTGSGSGTDFTLKISGVKAEDAGVYYCAQGTYYPHTFGSGTRLEIK
notes: detected with goat anti-human IgG (Fc); also called mAb 5E5
